Experiments:
[1] = target: human P2X7 (hP2X7) (human) (UniProt Q99572); assay: flow cytometry on human peripheral blood lymphocytes of a single donor, CD4- cells
mouse P2X7 (mP2X7) = target: T1, mouse P2X7 (mP2X7) (mus musculus, UniProt Q9Z1M0 1-595); assay: flow cytometry, HEK cells co-transfected with GFP and mP2X7, bound antibody detected with Alexa647 anti-mouse IgG; other quadrants: UL 64, LL 26, LR 5.5
T1 construct: Also used here for endogenous P2X7 on Yac-1 cells, primary mouse lymphocytes and macrophages
T1 chain: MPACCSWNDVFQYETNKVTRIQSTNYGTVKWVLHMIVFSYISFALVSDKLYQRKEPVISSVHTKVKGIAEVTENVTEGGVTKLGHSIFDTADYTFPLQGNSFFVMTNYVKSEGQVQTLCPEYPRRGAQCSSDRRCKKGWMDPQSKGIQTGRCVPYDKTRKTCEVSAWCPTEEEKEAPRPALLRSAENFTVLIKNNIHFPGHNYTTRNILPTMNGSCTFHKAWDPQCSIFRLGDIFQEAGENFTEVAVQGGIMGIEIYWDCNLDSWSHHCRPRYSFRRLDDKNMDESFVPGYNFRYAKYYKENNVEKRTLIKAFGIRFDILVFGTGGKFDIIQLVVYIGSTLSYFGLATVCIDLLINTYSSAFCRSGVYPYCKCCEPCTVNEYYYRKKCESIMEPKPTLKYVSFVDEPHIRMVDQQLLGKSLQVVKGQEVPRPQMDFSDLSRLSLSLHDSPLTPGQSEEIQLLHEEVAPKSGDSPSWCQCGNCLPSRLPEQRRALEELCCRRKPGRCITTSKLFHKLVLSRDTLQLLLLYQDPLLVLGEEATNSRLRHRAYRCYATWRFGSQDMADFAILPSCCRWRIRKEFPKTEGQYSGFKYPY

[2] = target: human P2X7 (hP2X7) (human) (UniProt Q99572); assay: flow cytometry, HEK cells co-transfected with GFP and hP2X7, bound antibody detected with Alexa647 anti-mouse IgG; other quadrants: UL 0.5, LL 9, LR 19
[3] = target: human P2X7 (hP2X7) (human) (UniProt Q99572); assay: flow cytometry of whole blood of one donor, gate on lymphocytes, Alexa647 conjugate with anti-CD4; blocked = pre-incubated with excess unlabelled Nb-Fc (legend: 3 ug each of 1c113-Fc and 3c23-Fc); lower quadrants 43 and 55
rat P2X7 (rP2X7) = target: T2, rat P2X7 (rP2X7) (Rattus norvegicus, UniProt Q64663 1-595); assay: flow cytometry, HEK cells co-transfected with GFP and rP2X7, bound antibody detected with Alexa647 anti-mouse IgG; other quadrants: UL 1, LL 7.5, LR 21
T2 sequence: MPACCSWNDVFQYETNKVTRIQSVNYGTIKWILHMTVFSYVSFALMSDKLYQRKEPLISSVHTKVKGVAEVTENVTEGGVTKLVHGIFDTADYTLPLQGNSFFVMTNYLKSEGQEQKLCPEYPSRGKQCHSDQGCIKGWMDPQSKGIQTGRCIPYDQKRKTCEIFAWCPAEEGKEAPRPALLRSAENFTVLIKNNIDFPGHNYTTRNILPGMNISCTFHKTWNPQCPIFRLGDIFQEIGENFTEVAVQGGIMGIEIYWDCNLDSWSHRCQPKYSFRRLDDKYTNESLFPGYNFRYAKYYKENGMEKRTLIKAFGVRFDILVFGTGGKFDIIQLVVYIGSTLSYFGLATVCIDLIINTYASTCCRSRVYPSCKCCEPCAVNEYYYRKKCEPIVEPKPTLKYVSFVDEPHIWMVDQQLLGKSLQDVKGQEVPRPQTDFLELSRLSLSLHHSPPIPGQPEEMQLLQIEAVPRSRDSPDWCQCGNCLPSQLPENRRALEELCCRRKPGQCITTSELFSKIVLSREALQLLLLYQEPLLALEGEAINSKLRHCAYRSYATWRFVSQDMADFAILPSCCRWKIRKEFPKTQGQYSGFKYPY

[4] = target: human P2X7 (hP2X7) (human) (UniProt Q99572); assay: flow cytometry on human peripheral blood lymphocytes of a single donor, CD4+ cells
[5] = target: human P2X7 (hP2X7) (human) (UniProt Q99572); assay: flow cytometry of whole blood of one donor, gate on lymphocytes, Alexa647 conjugate with anti-CD4; unblocked = pre-incubated with control 1067-Fc; lower quadrants 32 and 33
[6] = target: human P2X7 (hP2X7) (human) (UniProt Q99572); assay: cell-based or functional assay

Chain of human P2X7 (hP2X7) (human) (Q99572 whole entry): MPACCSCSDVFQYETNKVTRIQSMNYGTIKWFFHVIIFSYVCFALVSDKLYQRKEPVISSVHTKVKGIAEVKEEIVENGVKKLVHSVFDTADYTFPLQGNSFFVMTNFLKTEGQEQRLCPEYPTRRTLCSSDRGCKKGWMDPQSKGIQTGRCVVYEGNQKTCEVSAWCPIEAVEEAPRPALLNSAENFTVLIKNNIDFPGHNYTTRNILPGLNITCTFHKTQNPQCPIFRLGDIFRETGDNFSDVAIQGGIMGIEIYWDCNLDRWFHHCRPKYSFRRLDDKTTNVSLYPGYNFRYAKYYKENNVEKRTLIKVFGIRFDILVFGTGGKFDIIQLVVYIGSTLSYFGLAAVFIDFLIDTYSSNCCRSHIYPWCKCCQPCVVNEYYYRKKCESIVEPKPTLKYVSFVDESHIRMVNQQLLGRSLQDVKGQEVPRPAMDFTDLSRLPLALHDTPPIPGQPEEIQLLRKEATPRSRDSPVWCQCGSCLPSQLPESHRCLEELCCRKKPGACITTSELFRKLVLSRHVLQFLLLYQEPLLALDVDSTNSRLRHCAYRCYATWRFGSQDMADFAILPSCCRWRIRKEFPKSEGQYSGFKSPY

MFI [1]: 10 | % of cells in the GFP+ / anti-mIgG A647+ quadrant (upper right) (mouse P2X7 (mP2X7)): 4.8% | % of cells in the GFP+ / anti-mIgG A647+ quadrant (upper right) [2]: 72% | % of lymphocytes in the CD4+ / AF647+ quadrant (upper right), blocked [3]: 0.6% | % of lymphocytes in the CD4- / AF647+ quadrant (upper left), blocked [3]: 0.9% | % of cells in the GFP+ / anti-mIgG A647+ quadrant (upper right) (rat P2X7 (rP2X7)): 70% | MFI [4]: 11 | % of lymphocytes in the CD4+ / AF647+ quadrant (upper right), unblocked [5]: 22% | % of lymphocytes in the CD4- / AF647+ quadrant (upper left), unblocked [5]: 13% | IC50 [nM], blockade of L-selectin (CD62L) shedding in transfected HEK cells, 4 mM ATP [6]: > 19 nM | IC50 [ng/ml], blockade of L-selectin (CD62L) shedding in transfected HEK cells, 4 mM ATP [6]: > 2800 ng/mL
Substance: mAb L4 (anti-hP2X7 mouse monoclonal antibody)
